Tests used:
[1] = substrate: CSCC[C@H](N)C(=O)O; assay: coupled spectroscopic assay of pyrophosphate release (A340); assay type: biochemical, Trypanosoma brucei; conditions: 150 nM enzyme, co-substrate ATP, 5 mM MgSO4 and 100 mM KCl in 50 mM HEPES assay buffer, pH 8.0, 37 °C, parenthesis = 95% CI
Description: (§1) coupled spectroscopic assay of pyrophosphate release (A340) on TbAdoMetSyn

[2] = substrate: Nc1ncnc2c1ncn2[C@@H]1O[C@H](COP(=O)(O)OP(=O)(O)OP(=O)(O)O)[C@@H](O)[C@H]1O; assay: as above; assay type: biochemical, Trypanosoma brucei; conditions: 150 nM enzyme, co-substrate methionine, 5 mM MgSO4 and 100 mM KCl in 50 mM HEPES assay buffer, pH 8.0, 37 °C, parenthesis = 95% CI
Description: as §1

B1: TbAdoMetSyn (Trypanosoma brucei brucei TREU927) (protein)
chain: MSVRQIFFTSEHVSEGHPDKLCDQVSDAVLDACLEQDPLSKVACETCSKTGMVLVFGEITTKAVIDYQKVVRDTVKEIGFDNTEKGLDYRSLNLLVAVEQQSPDIYQGLGDFGGENLGAGDQGMMFGYATNETETLMPLSYELARGLAMTYSELRRNGGLPWARPDAKTQVTVQYEYDTRGGKQLLTPKRVAVILVSAQLDDGVSNETIREDLVKKVISTTIPAKFLDENTKYHLNPSGRFVIGGPHGDAGLTGRKIIVDTYGGWGAHGGGAFSGKDPSKVDRSAAYAARWIAKSLVAAGLADRCLVQLSYAIGVAEPLNIHVDTYGTGKRDDEYILGIVQKNFRLRPYDIIKELDLRRPIYRQTACFGHFGRVDTNGKGGFTWEVPKTLEGLSDVQ
notes: E. coli BL21(DE3); His6-tag removed by TEV protease
With B1 the Km [1] was 0.031 (0.025–0.039) mM, the kcat [1] was 0.19 s⁻¹ and the Km [2] was 0.31 (0.24–0.40) mM. The kcat [2] was 0.21 s⁻¹.

Reference: article PMC6221367, “A dual regulatory circuit consisting of S-adenosylmethionine decarboxylase protein and its reaction product controls expression of the paralogous activator prozyme in Trypanosoma brucei” (PLoS Pathogens, 2018)
